Reduction of co-precipitated Drosha after RNase A pre-treatment of the extract data for one molecule are collected here from paper PMC2995059.

The target of the test is HA-tagged full-size GAM (GAM/ZFp/ZNF512B) (human) (UniProt Q96KM6). The test is described as follows: co-IP.
Chain of UniProt Q96KM6 (Q96KM6 whole entry): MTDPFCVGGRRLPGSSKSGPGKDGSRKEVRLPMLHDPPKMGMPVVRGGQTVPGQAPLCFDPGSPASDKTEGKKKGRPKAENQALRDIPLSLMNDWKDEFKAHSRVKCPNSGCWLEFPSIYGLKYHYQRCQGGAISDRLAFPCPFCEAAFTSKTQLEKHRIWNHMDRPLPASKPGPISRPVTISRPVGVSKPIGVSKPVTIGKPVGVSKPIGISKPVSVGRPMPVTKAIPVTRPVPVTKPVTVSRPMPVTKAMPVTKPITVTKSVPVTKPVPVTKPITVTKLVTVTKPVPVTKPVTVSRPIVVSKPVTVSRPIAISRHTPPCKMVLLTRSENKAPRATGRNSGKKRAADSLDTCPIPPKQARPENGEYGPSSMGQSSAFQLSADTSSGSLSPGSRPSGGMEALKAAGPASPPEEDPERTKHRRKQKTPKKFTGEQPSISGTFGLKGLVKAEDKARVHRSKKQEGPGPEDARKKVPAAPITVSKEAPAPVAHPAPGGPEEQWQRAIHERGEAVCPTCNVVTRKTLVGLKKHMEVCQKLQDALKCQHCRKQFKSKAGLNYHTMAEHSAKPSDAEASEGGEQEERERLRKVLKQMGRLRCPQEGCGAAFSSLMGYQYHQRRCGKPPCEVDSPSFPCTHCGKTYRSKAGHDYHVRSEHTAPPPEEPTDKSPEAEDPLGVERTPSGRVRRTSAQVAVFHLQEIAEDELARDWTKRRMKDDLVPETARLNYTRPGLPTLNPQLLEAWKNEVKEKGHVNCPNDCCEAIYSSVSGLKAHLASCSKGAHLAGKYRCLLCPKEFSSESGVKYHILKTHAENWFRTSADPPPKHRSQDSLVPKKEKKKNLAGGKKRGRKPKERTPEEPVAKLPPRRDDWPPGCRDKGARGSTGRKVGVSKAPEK

B1: endogenous Drosha (enzyme)
chain: MMQGNTCHRMSFHPGRGCPRGRGGHGARPSAPSFRPQNLRLLHPQQPPVQYQYEPPSAPSTTFSNSPAPNFLPPRPDFVPFPPPMPPSAQGPLPPCPIRPPFPNHQMRHPFPVPPCFPPMPPPMPCPNNPPVPGAPPGQGTFPFMMPPPSMPHPPPPPVMPQQVNYQYPPGYSHHNFPPPSFNSFQNNPSSFLPSANNSSSPHFRHLPPYPLPKAPSERRSPERLKHYDDHRHRDHSHGRGERHRSLDRRERGRSPDRRRQDSRYRSDYDRGRTPSRHRSYERSRERERERHRHRDNRRSPSLERSYKKEYKRSGRSYGLSVVPEPAGCTPELPGEIIKNTDSWAPPLEIVNHRSPSREKKRARWEEEKDRWSDNQSSGKDKNYTSIKEKEPEETMPDKNEEEEEELLKPVWIRCTHSENYYSSDPMDQVGDSTVVGTSRLRDLYDKFEEELGSRQEKAKAARPPWEPPKTKLDEDLESSSESECESDEDSTCSSSSDSEVFDVIAEIKRKKAHPDRLHDELWYNDPGQMNDGPLCKCSAKARRTGIRHSIYPGEEAIKPCRPMTNNAGRLFHYRITVSPPTNFLTDRPTVIEYDDHEYIFEGFSMFAHAPLTNIPLCKVIRFNIDYTIHFIEEMMPENFCVKGLELFSLFLFRDILELYDWNLKGPLFEDSPPCCPRFHFMPRFVRFLPDGGKEVLSMHQILLYLLRCSKALVPEEEIANMLQWEELEWQKYAEECKGMIVTNPGTKPSSVRIDQLDREQFNPDVITFPIIVHFGIRPAQLSYAGDPQYQKLWKSYVKLRHLLANSPKVKQTDKQKLAQREEALQKIRQKNTMRREVTVELSSQGFWKTGIRSDVCQHAMMLPVLTHHIRYHQCLMHLDKLIGYTFQDRCLLQLAMTHPSHHLNFGMNPDHARNSLSNCGIRQPKYGDRKVHHMHMRKKGINTLINIMSRLGQDDPTPSRINHNERLEFLGDAVVEFLTSVHLYYLFPSLEEGGLATYRTAIVQNQHLAMLAKKLELDRFMLYAHGPDLCRESDLRHAMANCFEALIGAVYLEGSLEEAKQLFGRLLFNDPDLREVWLNYPLHPLQLQEPNTDRQLIETSPVLQKLTEFEEAIGVIFTHVRLLARAFTLRTVGFNHLTLGHNQRMEFLGDSIMQLVATEYLFIHFPDHHEGHLTLLRSSLVNNRTQAKVAEELGMQEYAITNDKTKRPVALRTKTLADLLESFIAALYIDKDLEYVHTFMNVCFFPRLKEFILNQDWNDPKSQLQQCCLTLRTEGKEPDIPLYKTLQTVGPSHARTYTVAVYFKGERIGCGKGPSIQQAEMGAAMDALEKYNFPQMAHQKRFIERKYRQELKEMRWEREHQEREPDETEDIKK
As for B1, the reduction of co-precipitated Drosha after RNase A pre-treatment of the extract worked out at 50%.
